Reference: US20240052042A1 (Novartis, published 2024)

T1: human Natriuretic Peptide Receptor 1 (hNPR1) (human, UniProt P16066 33-473, limits assumed)
T1 construct: pannings used NPR1-hFc; also called NPR1-hFc
T1 sequence: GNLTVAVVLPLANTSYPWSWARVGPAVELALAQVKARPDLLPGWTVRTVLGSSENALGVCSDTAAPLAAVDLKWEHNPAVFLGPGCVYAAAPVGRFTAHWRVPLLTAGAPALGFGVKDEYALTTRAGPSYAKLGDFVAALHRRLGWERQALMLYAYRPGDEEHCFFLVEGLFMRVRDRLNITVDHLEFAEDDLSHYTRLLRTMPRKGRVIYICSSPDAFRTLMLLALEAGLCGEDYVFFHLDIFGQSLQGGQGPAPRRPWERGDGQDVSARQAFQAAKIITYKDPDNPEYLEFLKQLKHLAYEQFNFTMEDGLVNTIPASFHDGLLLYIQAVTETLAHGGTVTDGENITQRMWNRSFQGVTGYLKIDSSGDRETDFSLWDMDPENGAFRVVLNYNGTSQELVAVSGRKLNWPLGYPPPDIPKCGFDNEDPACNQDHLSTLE

T2: hNPR1-ANP complex (human, UniProt P01160 124-151, limits assumed)
T2 construct: hNPR1 antigen in the presence of ANP; also called hNPR1 + 100 nM ANP
T2 sequence: T1 sequence
T2 sequence (peptide): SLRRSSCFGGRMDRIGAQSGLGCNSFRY

T3: rat NPR1 (rNPR1) (rat, UniProt P18910 29-469, limits assumed)
T3 construct: Soluble antigen
T3 sequence: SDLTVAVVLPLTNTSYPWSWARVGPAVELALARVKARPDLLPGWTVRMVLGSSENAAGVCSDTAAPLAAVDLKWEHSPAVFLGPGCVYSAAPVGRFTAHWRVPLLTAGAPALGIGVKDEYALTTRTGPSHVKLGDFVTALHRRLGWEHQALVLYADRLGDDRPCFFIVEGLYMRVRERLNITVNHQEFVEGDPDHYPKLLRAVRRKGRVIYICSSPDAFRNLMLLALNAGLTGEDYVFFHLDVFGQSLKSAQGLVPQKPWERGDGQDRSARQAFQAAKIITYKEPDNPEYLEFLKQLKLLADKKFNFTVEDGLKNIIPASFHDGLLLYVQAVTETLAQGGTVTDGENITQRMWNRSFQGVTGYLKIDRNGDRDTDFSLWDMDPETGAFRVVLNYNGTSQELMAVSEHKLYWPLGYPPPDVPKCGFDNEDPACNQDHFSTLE

T4: human NPR3 (counter target) (human, UniProt P17342 27-481, limits assumed)
T4 construct: Pannings used hNPR3-hFc; also called hNPR3; hNPR3-hFc
T4 sequence (looked up): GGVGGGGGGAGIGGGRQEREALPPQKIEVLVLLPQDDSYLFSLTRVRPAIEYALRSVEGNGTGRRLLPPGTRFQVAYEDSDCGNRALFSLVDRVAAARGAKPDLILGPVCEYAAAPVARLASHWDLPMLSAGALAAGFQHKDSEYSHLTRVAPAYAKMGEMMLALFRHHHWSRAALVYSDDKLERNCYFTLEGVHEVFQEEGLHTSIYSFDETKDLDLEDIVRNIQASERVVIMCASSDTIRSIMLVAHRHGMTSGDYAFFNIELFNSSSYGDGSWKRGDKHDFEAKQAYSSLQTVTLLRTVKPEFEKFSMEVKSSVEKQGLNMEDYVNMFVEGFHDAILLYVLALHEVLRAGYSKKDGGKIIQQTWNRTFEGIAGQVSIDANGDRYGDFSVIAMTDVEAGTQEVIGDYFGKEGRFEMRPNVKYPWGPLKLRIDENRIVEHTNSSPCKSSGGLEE

T5: human NPR3 in the presence of ANP (human, UniProt P17342 27-481; P01160 124-151, limits assumed)
T5 construct: also called hNPR3 + 100 nM ANP
T5 sequence (looked up): T4 sequence (looked up)
T5 sequence (peptide, looked up): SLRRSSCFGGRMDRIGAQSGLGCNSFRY

T6: human NPR1 on CHO-K1 cells in the presence of ANP (human, UniProt P01160 124-151)
T6 construct: also called hNPR1 CHO K1 + 100 nM ANP
T6 sequence: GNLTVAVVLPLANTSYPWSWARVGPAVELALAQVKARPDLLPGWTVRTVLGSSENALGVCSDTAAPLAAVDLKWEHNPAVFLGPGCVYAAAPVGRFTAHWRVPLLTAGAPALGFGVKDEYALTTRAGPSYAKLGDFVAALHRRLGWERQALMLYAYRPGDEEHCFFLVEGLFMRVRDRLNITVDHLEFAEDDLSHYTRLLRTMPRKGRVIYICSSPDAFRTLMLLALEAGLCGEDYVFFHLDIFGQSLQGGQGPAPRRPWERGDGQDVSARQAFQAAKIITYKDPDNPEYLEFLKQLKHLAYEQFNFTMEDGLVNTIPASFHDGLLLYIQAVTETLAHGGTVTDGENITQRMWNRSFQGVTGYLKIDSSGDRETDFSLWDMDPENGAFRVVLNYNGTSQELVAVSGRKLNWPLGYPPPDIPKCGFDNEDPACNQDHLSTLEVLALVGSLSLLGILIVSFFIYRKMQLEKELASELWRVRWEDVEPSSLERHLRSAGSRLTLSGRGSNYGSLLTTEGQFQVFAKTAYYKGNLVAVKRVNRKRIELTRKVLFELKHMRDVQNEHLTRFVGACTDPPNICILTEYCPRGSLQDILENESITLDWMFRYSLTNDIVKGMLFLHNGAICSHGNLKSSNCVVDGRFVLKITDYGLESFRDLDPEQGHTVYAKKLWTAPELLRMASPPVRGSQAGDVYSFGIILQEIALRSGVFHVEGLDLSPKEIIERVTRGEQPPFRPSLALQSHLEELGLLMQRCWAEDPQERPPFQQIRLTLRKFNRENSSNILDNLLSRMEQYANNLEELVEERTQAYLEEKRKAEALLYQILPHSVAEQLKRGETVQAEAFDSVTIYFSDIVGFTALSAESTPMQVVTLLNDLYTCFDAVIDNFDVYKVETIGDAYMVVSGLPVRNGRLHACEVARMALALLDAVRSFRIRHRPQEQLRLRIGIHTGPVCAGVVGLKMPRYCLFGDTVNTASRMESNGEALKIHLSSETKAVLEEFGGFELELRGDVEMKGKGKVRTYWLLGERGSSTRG
T6 sequence (peptide): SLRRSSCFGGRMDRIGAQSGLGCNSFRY

T7: human NPR1 on CHO-K1 cells (human, UniProt P16066 33-1061)
T7 construct: also called hNPR1 CHO K1; human NPR1 expressing CHO-K1 cells
T7 sequence: T6 sequence

B1: YY06 (IgG format) (antibody, V domains shown)
VH: EVQLLESGGGLVQPGGSLRLSCAASGFTFSSYAISWVRQAPGKGLEWVSAISGSGGSTYYAESVKGRFTISRDNSKNTLYLQMNSLRAEDTAVYYCARPYLGDRRSYGFDHWGQGTLVTVSS
VL: QSALTQPASVSGSPGQSITISCTGTSSDVGSYNLVSWYQQHPGKAPKLMIYEGSKRPSGVSNRFSGSKSGNTASLTISGLQAEDEADYYCSSYGFHIVVVVFGGGTKLTVLG
notes: also called YY06_LALA
B2: YY07 (IgG format) (antibody, V domains shown)
VH: EVQLVQSGAEVKKPGESLKISCKGSGYSFTSYWISWVRQMPGKGLEWMGIIYPGTSYTRYSPSFQGQVTISADKSISTAYLQWSSLKASDTAMYYCARGSLPGLLGFDHWGQGTLVTVSS
VL: QSVLTQPPSVSGAPGQRVTISCTGSSSNIGAGYDVHWYQQLPGTAPKLLIYGNSNRPNGVPDRFSGSKSGTSASLAITGLQAEDEADYYCQSYDSPTSSSVFGGGTKLTVLG
notes: also called YY07_LALA

Legend:
[1] = target: T1, human Natriuretic Peptide Receptor 1 …; assay: ELISA, 1 µM IgG; design: unit not given here
hNPR1-ANP complex = target: T2, hNPR1-ANP complex; assay: ELISA, 1 µM IgG; design: unit not given here
rat NPR1 (rNPR1) = target: T3, rat NPR1 (rNPR1); assay: ELISA, 1 µM IgG; design: unit not given here
[2] = target: T4, human NPR3 (counter target); assay: ELISA, 1 µM IgG; design: unit not given here
[3] = target: T5, human NPR3 in the presence of ANP; assay: ELISA, 1 µM IgG; design: unit not given here
[4] = target: T6, human NPR1 on CHO-K1 cells in the …; assay: flow cytometry, hNPR1 CHO-K1 cells, IgG
[5] = target: T7, human NPR1 on CHO-K1 cells; assay: flow cytometry, hNPR1 CHO-K1 cells, IgG

| ELISA binding at 1 µM IgG [1] | ELISA binding at 1 µM IgG (hNPR1-ANP complex) | ELISA binding at 1 µM IgG (rat NPR1 (rNPR1)) | ELISA binding at 1 µM IgG [2] | ELISA binding at 1 µM IgG [3] | flow cytometry S/BG at 1 µM IgG [4] | flow cytometry S/BG at 1 µM IgG [5] | Binder |
| --- | --- | --- | --- | --- | --- | --- | --- |
| 91 | 102 | 3 | 6 | 6 | 18 S/BG | 26 S/BG | B1 |
| 68 | 24 | 3 | 6 | 5 | 44 S/BG | 8 S/BG | B2 |
